Values quoted from earlier work, collected in PMC9303997.

Key:
[1] = biological target: spastin MIT (Homo sapiens) (UniProt Q9UBP0)
VPS4B MIT (Homo sapiens) = VPS4B MIT (Homo sapiens) (UniProt O75351)
VPS4B MIT (Homo sapiens), sequence (O75351 1-85): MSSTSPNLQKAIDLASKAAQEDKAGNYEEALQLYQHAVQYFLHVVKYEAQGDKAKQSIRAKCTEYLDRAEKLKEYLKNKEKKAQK

spastin MIT (Homo sapiens), sequence (Q9UBP0 117-198): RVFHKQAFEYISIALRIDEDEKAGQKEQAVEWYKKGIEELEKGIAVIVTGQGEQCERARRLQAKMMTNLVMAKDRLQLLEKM

Kd [1]: 0.5 nM | Kd (VPS4B MIT (Homo sapiens)): 12 nM
Substance: IST1 MIM (from UniProt P53990)
